Molecular target: T1, HSC70 (Homo sapiens, UniProt P11142)
T1 construct: made in house
Assay: ELISA binding of HSC70 to immobilized CFTR NBD1 and competition by soluble peptides
Settings: immobilized NBD1 incubated at 30 °C, direct comparison with immobilized 1097-L; n = 3, p < 0.01
Experimental: HSC70, DJA1 and DJA2 were purified as His-tagged proteins, as described. HSC70 was also amplified by PCR with an N-terminal FLAG tag, inserted into pPROEXHTa (Invitrogen) and purified as described. HSC70 was stored in 100 mM KOAc, 20 mM HEPES-KOH pH 7.5, 5 mM MgOAC2 (buffer G), DJA1 and DJA2 in 500 mM NaCl, 20 mM HEPES-KOH pH 7.5, 5 mM MgOAC2 (buffer H). Avi-tagged CFTR NBD1 was purified as described.
For NBD1 binding, 100 nM of strep-tagged NBD1 in 100 µl of 150 mM NaCl, 50 mM Na2HPO4 pH 7.5, 1 mM ATP, and 40 µM DTT (buffer N), was bound to streptavidin plates for 1 hour at 4 °C with agitation. Plates were washed with PBST and incubated in buffer N at 30 °C in a water bath for 5 min. Then, plates were blocked in PBST containing 0.5% BSA, followed by the addition of HSC70 binding reactions, and detection as above.

T1 sequence (P11142 whole entry): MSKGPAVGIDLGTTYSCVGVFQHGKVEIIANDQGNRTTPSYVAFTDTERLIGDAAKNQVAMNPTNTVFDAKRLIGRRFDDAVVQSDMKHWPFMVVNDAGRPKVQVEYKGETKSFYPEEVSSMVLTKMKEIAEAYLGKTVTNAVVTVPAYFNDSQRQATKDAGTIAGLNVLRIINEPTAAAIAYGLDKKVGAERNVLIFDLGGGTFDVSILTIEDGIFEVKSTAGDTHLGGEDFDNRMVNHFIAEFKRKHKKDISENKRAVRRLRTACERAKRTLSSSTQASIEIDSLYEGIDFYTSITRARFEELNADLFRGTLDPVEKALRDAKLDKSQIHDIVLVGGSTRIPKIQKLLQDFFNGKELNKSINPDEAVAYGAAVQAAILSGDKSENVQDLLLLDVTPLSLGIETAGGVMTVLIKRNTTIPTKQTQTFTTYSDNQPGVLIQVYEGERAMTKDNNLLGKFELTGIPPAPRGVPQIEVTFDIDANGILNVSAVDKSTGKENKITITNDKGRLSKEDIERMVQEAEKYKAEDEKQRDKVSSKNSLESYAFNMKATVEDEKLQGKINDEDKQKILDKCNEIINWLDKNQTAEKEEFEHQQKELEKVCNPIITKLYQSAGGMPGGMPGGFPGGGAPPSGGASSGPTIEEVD

B1: NBD1: Avi-tagged CFTR NBD1, purified and immobilized on streptavidin plates (protein)
chain: TTEVVMENVTAFWEEGFGELFEKAKQNNNNRKTSNGDDSLFFSNFSLLGTPVLKDINFKIERGQLLAVAGSTGAGKTSLLMVIMGELEPSEGKIKHSGRISFCSQFSWIMPGTIKENIIFGVSYDEYRYRSVIKACQLEEDISKFAEKDNIVLGEGGITLSGGQRARISLARAVYKDADLYLLDSPFGYLDVLTEKEIFESCVCKLMANKTRILVTSKMEHLKKADKILILHEGSSYFYGTFSELQNLQPDFSSKLMGCDSFDQFSAERRNSILTETLHRFSLEGDAPVS
modifications: left off: Avi-tag, end not stated, kept
notes: Avi-tagged CFTR NBD1, purified and immobilized on streptavidin plates
HSC70 binding to NBD1 relative to that observed for 1097-L: 73 ± 3%
